Literature values in publication PMC9739371, “Deciphering the Binding of the Nuclear Localization Sequence of Myc Protein to the Nuclear Carrier Importin α3” (International Journal of Molecular Sciences, 2022).

Target: NLS-Myc (GFP fusion) NLS (Homo sapiens) (UniProt P01106)
Sequence (P01106 whole entry, looked up, the tested form may be a part): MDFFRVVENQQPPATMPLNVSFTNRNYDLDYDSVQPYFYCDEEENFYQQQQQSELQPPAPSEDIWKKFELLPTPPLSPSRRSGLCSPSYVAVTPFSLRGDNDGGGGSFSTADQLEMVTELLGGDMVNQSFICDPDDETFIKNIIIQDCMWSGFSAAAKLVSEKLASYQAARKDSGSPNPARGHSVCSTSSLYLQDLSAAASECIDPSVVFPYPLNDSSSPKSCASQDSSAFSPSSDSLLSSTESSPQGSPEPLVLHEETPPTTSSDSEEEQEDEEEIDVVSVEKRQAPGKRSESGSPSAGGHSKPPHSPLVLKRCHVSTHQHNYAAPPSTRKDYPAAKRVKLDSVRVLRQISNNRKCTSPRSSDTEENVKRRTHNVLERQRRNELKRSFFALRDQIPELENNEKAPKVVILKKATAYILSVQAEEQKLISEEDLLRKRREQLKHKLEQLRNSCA

Chain of yeast ΔImpα ΔIBB (Q02821 1-68, stated change not applied): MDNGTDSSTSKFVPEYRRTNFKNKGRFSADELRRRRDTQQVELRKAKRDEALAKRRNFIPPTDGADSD

Kd: 6 nM
Substance: yeast ΔImpα ΔIBB (from UniProt Q02821)
